Results published in the RNAGym collection of RNA variant scans (doi:10.1073/pnas.2313332121).

B1: TPR t1 (parent)
chain: GACCAAUCUGCCCUCAGAGCUCGAGAACAUCUUCGGAUGCAGAGGAGGCAGGCUUCGGUGGCGCGAUAGCGCCAACGUCCUCAACCUCCAAUGCAUCCCACCACAUGAUGAUGCCUGAAGAGCCUUGGUUUUUUG

Variants of: B1
Test: polymerase ribozyme fitness, log enrichment relative to wild type (log ratio); higher = more active; in vitro selection for triplet polymerase activity
Procedure, shortened: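 To select mutant libraries of each subunit of a heterodimeric triplet polymerase ribozyme, built by PCR and transcribed, each was annealed with a biotinylated primer, partner subunit and triplets, then incubated frozen at −7 °C. Extended constructs were gel-excised, captured on streptavidin beads and amplified by RT-PCR, in one round carried out in triplicate. Illumina sequencing of input and output libraries kept genotypes with ≥10 input reads and ≥1 read per output. Fitness is the base-2 logarithm of genotype enrichment relative to wild-type enrichment, from inverse-variance-weighted replicate averages.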

| Variant | polymerase ribozyme fitness (log ratio) |
| --- | --- |
| C12A A24U U32A C99A U116C U130G | -7.85 |
| C12A A26G G57A U78A C124G | -1.04 |
| C12A A29U | -1.98 |
| C12A A29U C49U A74G C123A U131A | -1.45 |
| C12A A37C A46C C88U | -2.57 |
| C12A A37U A68G C114G | -6.56 |
| C12A A41G G61U G117C G135C | -4.3 |
| C12A A41G G63A | -2.29 |
| C12A A41U G48A G77U A83G | -2.82 |
| C12A A41U G77C A83G C85A U125A | -4.14 |
| C12A A46C G60A C82G | -1.19 |
| C12A A46U C82U | -1.99 |
| C12A A46U G47C | -1.36 |
| C12A A74G C123A U131A | 2.13 |
| C12A A83U | -0.825 |
| C12A A84U | -1.96 |
| C12A A105G C124U | -0.99 |
| C12A C13A U59G G127A | -3.41 |
| C12A C13G G35A | -5.31 |
| C12A C13U G61U U106A | -0.644 |
| C12A C15A C72A G110U | -4.88 |
| C12A C20A C64A C88U U116C | -6.74 |
| C12A C20A G61A C88U U116C | -4.6 |
| C12A C20A G61C | -4.95 |

| Variant | polymerase ribozyme fitness (log ratio) |
| --- | --- |
| C12A C20U A26C G48A C49A A121G U133A | -5.75 |
| C12A C22A G52A A84U A91C G120C | -6.58 |
| C12A C22G | -2.6 |
| C12A C28U | -1.82 |
| C12A C34A G45A G71C | -6.58 |
| C12A C40A C70G | -4.57 |
| C12A C40U C56A U96A G117A | -5.83 |
| C12A C49A C70A C97A G120U U130G | -5.85 |
| C12A C49A C88A G110U | -1.74 |
| C12A C49A G61A C82A | -0.648 |
| C12A C49A G63U A121U U132C G135A | 1.42 |
| C12A C49U | -1.61 |
| C12A C53A G61U U109G G117C U125A U126C | -7.8 |
| C12A C53G G69A C115A U116A | -7.23 |
| C12A C53U A83C U106G G113U | -6.76 |
| C12A C56A C70U C102A C104U | -2.58 |
| C12A C56U A95G C115A C124A | 0.771 |
| C12A C62A G77A | -3.27 |
| C12A C62G C72G | -6.48 |
| C12A C62U | -0.927 |
| C12A C64U | -0.93 |
| C12A C64U C115U G120A C123A | -1.16 |
| C12A C64U U81A | -1.67 |
| C12A C72G | -0.22 |

| Variant | polymerase ribozyme fitness (log ratio) |
| --- | --- |
| C12A C72U | -0.97 |
| C12A C72U C98A | -6.65 |
| C12A C80U G120U U132A | 1.64 |
| C12A C85U | -1.04 |
| C12A C88G | -1.56 |
| C12A C88G C89A U116C C124A G127A | -3.44 |
| C12A C89U | -1.16 |
| C12A C97A | -4.79 |
| C12A C97A U131A | -4.52 |
| C12A C98U G110C U131A | -6.2 |
| C12A C99G G110U | -6.29 |
| C12A C99U C123U U129G | -3.57 |
| C12A C115A | -0.819 |
| C12A C123G | 1.19 |
| C12A G19A A46C C73U G117C | -5.99 |
| C12A G19A C20A C53U C89A | -3.61 |
| C12A G19A G60U | -2.57 |
| C12A G19C A91U U126G | -5.51 |
| C12A G19C G58A C82G | -3.7 |
| C12A G23A C82G | -7.42 |
| C12A G25U A27C A37C U38A C70G C82U C115U | -6.08 |
| C12A G35A C49A | -5.9 |
| C12A G35U C40U G45A C53G G63C G117C G127U | -6.85 |
| C12A G39U | -1.1 |

| Variant | polymerase ribozyme fitness (log ratio) |
| --- | --- |
| C12A G39U A50U U133A | -1.46 |
| C12A G44C C64U U125G | -2.52 |
| C12A G47A C70U C88U U106A | -2.59 |
| C12A G47A C102G A111C A118C U129C | -7.59 |
| C12A G47C C56A C70U A83U C85U G120C | -4.03 |
| C12A G47U G60A U78A | -2.01 |
| C12A G48C U54C A83C C88A | -2.86 |
| C12A G48C U116G | -5.7 |
| C12A G48U C53A C101U G113C G120A | -3.38 |
| C12A G48U G71A | -2.04 |
| C12A G51A A91G A119G G120A | -2.39 |
| C12A G57A | -1.19 |
| C12A G57U C82G G113A G122A | -2.01 |
| C12A G57U G61U C89G | -5.96 |
| C12A G58A | -0.259 |
| C12A G60A G110U G122A U132A | -3.16 |
| C12A G61A C64U | -4 |
| C12A G61A G93A | -0.608 |
| C12A G61U C70U U81G | -4.98 |
| C12A G61U C104U A108C A121U | -3.79 |
| C12A G63A C89G C114A | -6.47 |
| C12A G69A | -2.89 |
| C12A G69U | -0.288 |
| C12A G69U G107C G117C | -6.81 |

| Variant | polymerase ribozyme fitness (log ratio) |
| --- | --- |
| C12A G71A | -1.07 |
| C12A G71U A91C | -1.77 |
| C12A G113C | -2.64 |
| C12A G113U | -2.09 |
| C12A G117C A121G | -3.52 |
| C12A G117U U131C | -4.17 |
| C12A U14A C28U C85U | -3.93 |
| C12A U14G | -1.01 |
| C12A U14G G71U | -2.39 |
| C12A U21C A83C | -0.123 |
| C12A U32C G107A G120A | -3.32 |
| C12A U32G C53A C89U C114A | -8.31 |
| C12A U78C | -0.581 |
| C12A U81A U133A | -1.05 |
| C12A U81C | -1.73 |
| C12A U116A C124A | -0.089 |
| C12A U126C | -2.01 |
| C12A U130C U131C | -0.148 |
| C12G A16G C53A C80U | -5.01 |
| C12G A16U G48A C82A | -3.19 |
| C12G A18U G39A G52A G60A C82U U106G G120A | -3.95 |
| C12G A24U C76A C82A G120C | -6.17 |
| C12G A27G C64U C104U | -2.48 |
| C12G A29U C49G C82U C115U U133A | -2.06 |

| Variant | polymerase ribozyme fitness (log ratio) |
| --- | --- |
| C12G A29U C56U A118C C123G | -0.961 |
| C12G A29U C62G | -2.88 |
| C12G A37C A41U C79A | -3.13 |
| C12G A37U A105C U112C | -0.116 |
| C12G A41G C72U C102U | -2.31 |
| C12G A46G G63C C115G | -4.6 |
| C12G A46G G128C U131A | -2.32 |
| C12G A74U | -0.266 |
| C12G A83G C88G U125G | -2.21 |
| C12G A108G | -1.2 |
| C12G C13A A50C A119U G127A | -1.75 |
| C12G C13A C56U C124A U132C | 0.686 |
| C12G C13A C72G C124U | -0.0514 |
| C12G C15G A46U A74G U78A C114A | -6.73 |
| C12G C15G G45A C49G C85U C124U | -2.82 |
| C12G C20A C49A | -2.49 |
| C12G C20G C56U C79U C82U A91U G107C G117A | -3.77 |
| C12G C20U G36A G71A C80U C82A C88A G120U U126C | -5.21 |
| C12G C28U A66C C72U A84C | -3.81 |
| C12G C28U C53A | -2.29 |
| C12G C31U C49U G51U C70U C101A U109G | -6.92 |
| C12G C31U G61A | -5.13 |
| C12G C34A C56U | -2.05 |
| C12G C40A | -1.14 |

| Variant | polymerase ribozyme fitness (log ratio) |
| --- | --- |
| C12G C40U A43U A83U A105C C124G | -5.47 |
| C12G C40U C49U G65C C114G | -6.07 |
| C12G C49G U54A | -0.423 |
| C12G C53A G71U G107C U112C | -4.39 |
| C12G C56G C70G | -3.6 |
| C12G C62U | 0.0184 |
| C12G C62U A68C U116C A121C U129A | -6.48 |
| C12G C70A C82U A105U U106A U109G | -4.43 |
| C12G C72A | -0.123 |
| C12G C72G C104U C123U C124A | 2.06 |
| C12G C72U A100C | -1.28 |
| C12G C73A A74G C89A A111G G127U | -5.44 |
| C12G C73A C79A C86U | -0.241 |
| C12G C73A C88U G122A | -1.14 |
| C12G C80U | 0.429 |
| C12G C85G | -1.08 |
| C12G C88A | 0.489 |
| C12G C89A | -1.41 |
| C12G C94U G110C G127C | -4.48 |
| C12G C98U A119G | 0.523 |
| C12G C115G | -2.46 |
| C12G C123G | 1.55 |
| C12G C124A | 1.61 |
